The values that follow come from publication PMC6366628.

For one series, the target named is RPA complex (Homo sapiens, UniProt P27694;P15927;P35244 1-616;1-270;1-121). As to the kind of experiment: EMSA. (Mobility shift assays separate free from complexed probe on a gel.)
A further series has as its target T1, RAD52 (Homo sapiens, UniProt P43351 1-418).
T1 sequence: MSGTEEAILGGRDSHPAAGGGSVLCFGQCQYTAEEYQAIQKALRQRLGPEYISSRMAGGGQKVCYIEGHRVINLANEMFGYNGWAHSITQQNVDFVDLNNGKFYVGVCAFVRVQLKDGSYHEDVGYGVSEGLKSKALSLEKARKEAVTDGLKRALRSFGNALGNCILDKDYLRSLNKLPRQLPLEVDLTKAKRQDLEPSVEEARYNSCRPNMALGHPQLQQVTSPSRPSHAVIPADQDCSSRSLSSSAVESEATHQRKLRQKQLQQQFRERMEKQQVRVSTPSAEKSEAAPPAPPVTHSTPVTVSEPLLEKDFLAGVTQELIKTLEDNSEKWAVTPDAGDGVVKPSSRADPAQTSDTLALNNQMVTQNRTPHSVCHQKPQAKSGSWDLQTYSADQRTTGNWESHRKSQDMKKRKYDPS
As to the kind of experiment: EMSA.

RPA complex, sequence (P27694 whole entry, chain 1 of 3): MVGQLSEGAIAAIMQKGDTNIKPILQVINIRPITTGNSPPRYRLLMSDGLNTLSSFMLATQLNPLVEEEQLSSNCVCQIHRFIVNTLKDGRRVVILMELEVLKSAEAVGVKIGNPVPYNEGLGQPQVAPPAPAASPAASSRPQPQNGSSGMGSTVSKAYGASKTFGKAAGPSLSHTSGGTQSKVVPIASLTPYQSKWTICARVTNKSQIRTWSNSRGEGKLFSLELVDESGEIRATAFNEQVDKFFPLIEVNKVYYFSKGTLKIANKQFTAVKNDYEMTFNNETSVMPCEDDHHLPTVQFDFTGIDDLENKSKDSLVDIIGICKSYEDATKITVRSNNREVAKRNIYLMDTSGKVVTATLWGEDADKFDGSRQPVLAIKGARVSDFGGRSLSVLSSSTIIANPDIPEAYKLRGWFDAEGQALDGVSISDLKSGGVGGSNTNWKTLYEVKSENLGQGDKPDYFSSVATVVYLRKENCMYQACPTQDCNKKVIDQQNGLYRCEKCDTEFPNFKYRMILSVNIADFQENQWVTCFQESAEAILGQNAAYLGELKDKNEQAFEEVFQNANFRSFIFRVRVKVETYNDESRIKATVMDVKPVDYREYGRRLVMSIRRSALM
RPA complex, sequence (P15927 whole entry, chain 2 of 3): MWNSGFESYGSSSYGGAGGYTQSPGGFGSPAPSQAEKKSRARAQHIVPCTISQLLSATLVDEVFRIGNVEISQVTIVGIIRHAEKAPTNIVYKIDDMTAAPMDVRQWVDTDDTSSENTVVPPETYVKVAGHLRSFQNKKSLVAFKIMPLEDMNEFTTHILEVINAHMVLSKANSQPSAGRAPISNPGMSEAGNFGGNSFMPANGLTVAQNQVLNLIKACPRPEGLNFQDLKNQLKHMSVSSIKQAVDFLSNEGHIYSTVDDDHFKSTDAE
RPA complex, sequence (P35244 whole entry, chain 3 of 3): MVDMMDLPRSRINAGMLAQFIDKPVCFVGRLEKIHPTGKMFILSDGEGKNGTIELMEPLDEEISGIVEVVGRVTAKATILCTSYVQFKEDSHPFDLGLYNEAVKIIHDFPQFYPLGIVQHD

B1: ssTelo (Telo G-strand) (ssDNA)
DNA: TTAGGGTTAGGGTTAGGGTTAGGGTTAGGGTTAGGGTTAGGGTTAGGGTTAGGGTTAGGG
As to B1, the binding result in the series with RPA complex and in the series with RAD52 was “binds” each time.
